As usually defined, the Kd is the equilibrium constant for the complex coming apart.

Data set [1] deals with 8N-Gag (Δp6) (HIV-1). As to the kind of experiment: FCS Cy5 quenching. As to conditions: 20 mM Tris-HCl pH 7.5, 0.2 M NaCl (varied in salt titrations), 5 mM MgCl2, 1 uM ZnCl2, 0.1 mM PMSF, 1 mM BME, 0.05% Tween 20; 15 nM RNA; overnight 4 C, FCS at ….
The subject of data set [2] is WT-Gag (HIV-1 Δp6 Gag) (HIV-1). The data set can be described thus: FCS Cy5 quenching. As to conditions: 20 mM Tris-HCl pH 7.5, 0.2 M NaCl (varied in salt titrations), 5 mM MgCl2, 1 uM ZnCl2, 0.1 mM PMSF, 1 mM BME, 0.05% Tween 20; 15 nM RNA; overnight 4 C, FCS at ….
For data set [3], the system named is 8N-Gag (Δp6) (HIV-1). As to the kind of experiment: FCS Cy5 quenching, competition. As to conditions: 20 mM Tris-HCl pH 7.5, 0.2 M NaCl (varied in salt titrations), 5 mM MgCl2, 1 uM ZnCl2, 0.1 mM PMSF, 1 mM BME, 0.05% Tween 20; 15 nM RNA; overnight 4 C, FCS at ….
For data set [4], the system named is WT-Gag (HIV-1 Δp6 Gag) (HIV-1). The data set can be described thus: FCS Cy5 quenching, competition. As to conditions: 20 mM Tris-HCl pH 7.5, 0.2 M NaCl (varied in salt titrations), 5 mM MgCl2, 1 uM ZnCl2, 0.1 mM PMSF, 1 mM BME, 0.05% Tween 20; 15 nM RNA; overnight 4 C, FCS at ….
Data set [5] has as its system 8N-Gag (Δp6) (HIV-1). The data set can be described thus: FCS Cy5 quenching. As to conditions: 20 mM Tris-HCl pH 7.5, 0.2 M NaCl (varied in salt titrations), 5 mM MgCl2, 1 uM ZnCl2, 0.1 mM PMSF, 1 mM BME, 0.05% Tween 20; 15 nM RNA; overnight 4 C, FCS at …. The source holds these as a separate data set.
For data set [6], the target named is Gag (Human immunodeficiency virus 1) (UniProt O93182). As to conditions: cited from earlier work.
The test system of data set [7] is WT-Gag (HIV-1 Δp6 Gag) (HIV-1). The data set can be described thus: FCS Cy5 quenching. As to conditions: 20 mM Tris-HCl pH 7.5, 0.2 M NaCl (varied in salt titrations), 5 mM MgCl2, 1 uM ZnCl2, 0.1 mM PMSF, 1 mM BME, 0.05% Tween 20; 15 nM RNA; overnight 4 C, FCS at …. The source holds these as a separate data set.

Chain of Gag (O93182 2-500): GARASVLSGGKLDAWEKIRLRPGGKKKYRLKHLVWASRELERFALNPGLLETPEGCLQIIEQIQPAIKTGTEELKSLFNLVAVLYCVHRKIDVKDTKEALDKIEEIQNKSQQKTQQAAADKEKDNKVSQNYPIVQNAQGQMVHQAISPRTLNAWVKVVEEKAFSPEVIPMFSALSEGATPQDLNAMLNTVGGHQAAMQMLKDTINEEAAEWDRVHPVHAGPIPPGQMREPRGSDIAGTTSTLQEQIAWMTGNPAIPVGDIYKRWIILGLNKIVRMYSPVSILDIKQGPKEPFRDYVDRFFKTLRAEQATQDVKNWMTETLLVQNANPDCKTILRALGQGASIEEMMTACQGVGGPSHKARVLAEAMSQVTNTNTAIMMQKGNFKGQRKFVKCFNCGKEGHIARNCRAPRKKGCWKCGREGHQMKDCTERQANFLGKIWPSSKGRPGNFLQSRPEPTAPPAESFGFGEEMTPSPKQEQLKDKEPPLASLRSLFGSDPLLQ

As to MoMLV Ψ RNA, the Kd was found to be 0.0598 µM in the data set with 8N-Gag (Δp6) (HIV-1) [1], 0.0259 µM in data set [2], 0.059 µM in the data set with 8N-Gag (Δp6) (HIV-1) [3] and 0.119 µM in data set [4].
As for HIV Ψ2 (dimeric HIV-1 Ψ RNA), the equilibrium dissociation constant (Kd) in the data set with 8N-Gag (Δp6) (HIV-1) [1] was 0.0432 µM; in data set [2], 0.0203 µM; in the data set on 8N-Gag (Δp6) (HIV-1) [5], over 1 µM; with 8N-Gag (Δp6) (HIV-1) [3] it was 0.0547 µM; in data set [4] it was 0.037 µM.
For the substance GRPE RNA, the Kd in the data set on 8N-Gag (Δp6) (HIV-1) [1] is 0.145 µM; in data set [2], 0.0442 µM; in the data set on 8N-Gag (Δp6) (HIV-1) [5] it was over 1 µM; in the data set on 8N-Gag (Δp6) (HIV-1) [3], 0.154 µM; in data set [4], 0.315 µM.
Take Gag (from UniProt O93182): in data set [6], the Kd was 10 µM.
In the case of HIV Ψ1 (monomeric HIV-1 Ψ RNA), the Kd in the data set on 8N-Gag (Δp6) (HIV-1) [1] was determined as 0.06 µM; in data set [2], 0.0214 µM; in the data set with 8N-Gag (Δp6) (HIV-1) [3], 0.06 µM; in data set [4] it was 0.0533 µM; in data set [7] it was 0.026 µM.

The record behind these values is PMC5531834.
